{"source": "IntAct's records for PubMed 34927784", "parents": {"B1": {"name": "Endosomal transmembrane epsin interactor 1 (Homo sapiens), Q15884 (parent)", "chain": "MILLVNLFVLLSVVCVLLNLAGFILGCQGAQFVSSVPRCDLVDLGEGKICFCCEEFQPAKCTDKENALKLFPVQPCSAVHLLLKKVLFALCALNALTTTVCLVAAALRYLQIFATRRSCIDESQISAEEAEDHGRIPDPDDFVPPVPPPSYFATFYSCTPRMNRRMVGPDVIPLPHIYGARIKGVEVFCPLDPPPPYEAVVSQMDQEQGSSFQMSEGSEAAVIPLDLGCTQVTQDGDIPNIPAEENASTSTPSSTLVRPIRSRRALPPLRTRSKSDPVLHPSEERAAPVLSCEAATQTERRLDLAAVTLRRGLRSRASRCRPRSLIDYKSYMDTKLLVARFLEQSSCTMTPDIHELVENIKSVLKSDEEHMEEAITSASFLEQIMAPLQPSTSRAHKLPSRRQPGLLHLQSCGDLHTFTPAGRPRAERRPRRVEAERPHSLIGVIRETVL"}}, "key": {"[1]": {"variants_of": "B1", "conditions": "with ITCH"}, "[2]": {"variants_of": "B1", "conditions": "with epn1_human EPN1, Q9Y6I3"}, "[3]": {"variants_of": "B1", "conditions": "with ITCH", "remark": "listed apart in the source"}, "[4]": {"variants_of": "B1", "conditions": "with ITCH", "remark": "listed apart in the source"}}, "data": [{"variant": "MILLVNLFVLLSVVCVLLNLAGFILGCQGAQFVSSVPRCDLVDLGEGKICFCCEEFQPAKCTDKENALKLFPVQPCSAVHLLLKKVLFALCALNALTTTVCLVAAALRYLQIFATRRSCIDESQISAEEAEDHGRIPDPDDFVPPVPPPSAFATFYSCTPRMNRRMVGPDVIPLPHIYGARIKGVEVFCPLDPPPPAEAVVSQMDQEQGSSFQMSEGSEAAVIPLDLGCTQVTQDGDIPNIPAEENASTSTPSSTLVRPIRSRRALPPLRTRSKSDPVLHPSEERAAPVLSCEAATQTERRLDLAAVTLRRGLRSRASRCRPRSLIDYKSYMDTKLLVARFLEQSSCTMTPDIHELVENIKSVLKSDEEHMEEAITSASFLEQIMAPLQPSTSRAHKLPSRRQPGLLHLQSCGDLHTFTPAGRPRAERRPRRVEAERPHSLIGVIRETVL", "note": "[Y151A;Y197A]", "values": [{"measurement": "effect of a mutation on the interaction", "setting": "[1]", "value": "decreasing interaction strength"}, {"measurement": "effect of a mutation on the interaction", "setting": "[2]", "value": "with no effect"}, {"measurement": "effect of a mutation on the interaction", "setting": "[3]", "value": "with no effect"}, {"measurement": "effect of a mutation on the interaction", "setting": "[4]", "value": "disrupting interaction strength"}]}, {"variant": "MILLVNLFVLLSVVCVLLNLAGFILGCQGAQFVSSVPRCDLVDLGEGKICFCCEEFQPAKCTDKENALKLFPVQPCSAVHLLLKKVLFALCALNALTTTVCLVAAALRYLQIFATRRSCIDESQISAEEAEDHGRIPDPDDFVPPVPPPSAFATFYSCTPRMNRRMVGPDVIPLPHIYGARIKGVEVFCPLDPPPPYEAVVSQMDQEQGSSFQMSEGSEAAVIPLDLGCTQVTQDGDIPNIPAEENASTSTPSSTLVRPIRSRRALPPLRTRSKSDPVLHPSEERAAPVLSCEAATQTERRLDLAAVTLRRGLRSRASRCRPRSLIDYKSYMDTKLLVARFLEQSSCTMTPDIHELVENIKSVLKSDEEHMEEAITSASFLEQIMAPLQPSTSRAHKLPSRRQPGLLHLQSCGDLHTFTPAGRPRAERRPRRVEAERPHSLIGVIRETVL", "note": "[Y151A]", "values": [{"measurement": "effect of a mutation on the interaction", "setting": "[1]", "value": "with no effect"}]}, {"variant": "MILLVNLFVLLSVVCVLLNLAGFILGCQGAQFVSSVPRCDLVDLGEGKICFCCEEFQPAKCTDKENALKLFPVQPCSAVHLLLKKVLFALCALNALTTTVCLVAAALRYLQIFATRRSCIDESQISAEEAEDHGRIPDPDDFVPPVPPPSYFATFYSCTPRMNRRMVGPDVIPLPHIYGARIKGVEVFCPLDPPPPAEAVVSQMDQEQGSSFQMSEGSEAAVIPLDLGCTQVTQDGDIPNIPAEENASTSTPSSTLVRPIRSRRALPPLRTRSKSDPVLHPSEERAAPVLSCEAATQTERRLDLAAVTLRRGLRSRASRCRPRSLIDYKSYMDTKLLVARFLEQSSCTMTPDIHELVENIKSVLKSDEEHMEEAITSASFLEQIMAPLQPSTSRAHKLPSRRQPGLLHLQSCGDLHTFTPAGRPRAERRPRRVEAERPHSLIGVIRETVL", "note": "[Y197A]", "values": [{"measurement": "effect of a mutation on the interaction", "setting": "[1]", "value": "decreasing interaction strength"}]}]}
